Laboratory results taken from paper PMC10284691 (2023).
Where two headings read alike, the source gives them in different places.

B1: BISP (purified from insect cells) (natural protein)
chain: SAMRYASGFQNNERQSSEQESYSRSAQSSEKSSSGYQMGEMASAGVGMSSGYGGSGYSSGGGYQQGVGYSGCDSDYSSGGIGGIVNTATGLASSVTGMAGGLGGGGGLADVGGVVNTVSGLADVGGLTNTVSGLADVGGVTNTVGGLVNGIAGGGAGGGLLGGVLGGGDGGCGGNCGGNCGGNCGGRGGGGGGLLGGILGGGSGGGRGARVSARVC
B2: BISP(26–124) (purified from insect cells) (domain or fragment)
chain: SAMRYASGFQNNERQSSEQESYSRSAQSSEKSSSGYQMGEMASAGVGMSSGYGGSGYSSGGGYQQGVGYSGCDSDYSSGGIGGIVNTATGLASSVTGMA

How the values were obtained:
[1] = target: T1, BPH14–LRR (purified from insect cells) (rice (Oryza sativa), line RI35 carrying …, biotin (NHS-biotin) in the BLI assays; RED-NHS 2nd Generation dye in the MST assays); assay: BLI
T1 chain: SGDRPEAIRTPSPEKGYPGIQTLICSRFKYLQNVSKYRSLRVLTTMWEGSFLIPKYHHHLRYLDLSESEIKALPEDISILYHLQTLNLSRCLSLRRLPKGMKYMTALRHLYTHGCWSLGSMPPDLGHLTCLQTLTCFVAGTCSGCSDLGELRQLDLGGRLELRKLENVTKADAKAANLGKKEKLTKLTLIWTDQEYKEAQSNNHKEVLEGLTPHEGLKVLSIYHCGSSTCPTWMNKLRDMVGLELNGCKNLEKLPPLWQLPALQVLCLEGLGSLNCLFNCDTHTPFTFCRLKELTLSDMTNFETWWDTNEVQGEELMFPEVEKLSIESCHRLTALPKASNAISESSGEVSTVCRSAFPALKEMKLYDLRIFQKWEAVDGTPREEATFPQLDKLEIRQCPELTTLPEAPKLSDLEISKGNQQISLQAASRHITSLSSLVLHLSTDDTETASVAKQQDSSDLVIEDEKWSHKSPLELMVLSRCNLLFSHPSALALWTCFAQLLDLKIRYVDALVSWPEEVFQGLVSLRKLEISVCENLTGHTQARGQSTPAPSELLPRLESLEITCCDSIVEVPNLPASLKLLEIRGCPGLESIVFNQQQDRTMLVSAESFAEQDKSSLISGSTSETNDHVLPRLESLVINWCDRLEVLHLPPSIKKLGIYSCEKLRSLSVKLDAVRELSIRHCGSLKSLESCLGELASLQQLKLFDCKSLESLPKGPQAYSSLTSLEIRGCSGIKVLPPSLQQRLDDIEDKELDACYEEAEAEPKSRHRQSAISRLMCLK

[2] = target: T1, BPH14–LRR (purified from insect cells); assay: MST
[3] = target: T1, BPH14–LRR (purified from insect cells); assay: MST; competition with BISP(26–124) prebound to LRR
[4] = target: T1, BPH14–LRR (purified from insect cells); assay: BLI

Row | Binder | koff [1] | Kd [2] | Ki [3] | koff [4]
1 | B1 | 0.000341 s⁻¹ | 9.72 nM | 98 nM | –
2 | B2 | – | 56.1 nM | – | 0.000719 s⁻¹
